According to US20140287952A1 (ALDERBIO, published 2014):

T1: human CGRP alpha (human, UniProt P06881 83-119, N-terminally or C-terminally biotinylated (the two ELISAs were run separately))
T1 construct: Bought peptide; N- and C-terminally biotinylated forms were captured on neutravidin plates; also called HuCGRP alpha; CGRPα
T1 peptide (looked up): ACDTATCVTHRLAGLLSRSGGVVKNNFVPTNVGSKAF


Legend:
[1] = target: T2, human PCSK9 (human, UniProt Q8NBP7 31-692, biotinylated in the ELISA (site not stated)); test: cell-based or functional assay
T2 sequence (Q8NBP7 31-692 limits assumed): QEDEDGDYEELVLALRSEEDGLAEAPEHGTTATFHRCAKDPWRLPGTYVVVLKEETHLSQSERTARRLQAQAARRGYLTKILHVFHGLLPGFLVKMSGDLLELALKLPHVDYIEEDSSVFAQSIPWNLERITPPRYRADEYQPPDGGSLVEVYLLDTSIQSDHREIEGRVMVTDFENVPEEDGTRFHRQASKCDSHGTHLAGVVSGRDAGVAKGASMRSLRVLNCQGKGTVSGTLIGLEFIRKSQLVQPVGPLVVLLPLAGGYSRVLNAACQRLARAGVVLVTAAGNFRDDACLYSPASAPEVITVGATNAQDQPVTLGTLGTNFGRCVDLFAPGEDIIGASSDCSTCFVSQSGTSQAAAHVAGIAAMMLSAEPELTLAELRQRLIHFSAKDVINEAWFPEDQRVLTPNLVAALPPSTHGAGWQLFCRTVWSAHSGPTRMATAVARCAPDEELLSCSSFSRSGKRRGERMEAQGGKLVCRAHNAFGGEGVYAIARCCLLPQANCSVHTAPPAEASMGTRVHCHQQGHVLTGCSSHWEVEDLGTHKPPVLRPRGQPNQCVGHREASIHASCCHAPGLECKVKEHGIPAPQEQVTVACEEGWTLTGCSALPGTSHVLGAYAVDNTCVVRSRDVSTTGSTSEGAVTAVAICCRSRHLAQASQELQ

[2] = target: T2, human PCSK9; test: ELISA: biotinylated human PCSK9 on Neutravidin plates, antibody dilution series, anti-human IgG Fc-HRP, OD450
[3] = target: T3, human beta-NGF (human, UniProt P01138 122-241, limits assumed, biotinylated in the ELISA (site not stated)); test: ELISA: biotinylated hu B-NGF on Neutravidin plates, antibody dilution series, anti-human IgG Fc-HRP, OD450
T3 construct: Biotinylated and captured on Neutravidin plates in the ELISA; Used unlabelled in the TF1 proliferation assay; also called hu B-NGF; huB-NGF
T3 sequence (P01138 122-241 limits assumed): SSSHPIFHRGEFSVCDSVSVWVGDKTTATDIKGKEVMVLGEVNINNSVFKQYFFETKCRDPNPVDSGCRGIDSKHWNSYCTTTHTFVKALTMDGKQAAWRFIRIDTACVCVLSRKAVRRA

[4] = target: T1, human CGRP alpha; test: ELISA: biotinylated human CGRP alpha on neutravidin plates (the sheet does not say whether N- or C-terminally biotinylated), antibody dilution series, OD450

Binder | EC50 [3] | EC50 [4] | other results
Ab2 (antibody, V domains shown) VH: SVEESGGRLVTPGTPLTLTCTVSGFSLSSYAMSWVRQAPGKGLEWIGIIDAIDNTYYASWAKGRFTISKTSTTVDLKMTSLTTGDTATYFCARASILGYSIATGFNIWGPGTLVTVSS VL: AYDMTQTPASVEVAVGGTVTIKCQASQSISSHLAWYQQKSGQPPKLLIYRASTLESGVSSRFKGSGSGTEFTLTISDLECADAATYYCQQGYGVSDVDNGFGGGTEVVVK |  |  | IC50; LDL uptake assay: BODIPY-LDL uptake (RFUs) by HepG2 cells, antibody pre-incubated with 3 µg/mL PCSK9; RFUs rise with the antibody concentration [1]: 17.3 nM; EC50 [2]: 0.174 nM
Ab7 (antibody, V domains shown) VH: QEQLKESGGRLVTPGTPLTLTCTVSGFSLSSYAMIWVRQAPGKGLEYIGYIDTDTSAYYASWVKGRFTISRTSTTVDLKITSPTTEDTATYFCARSYAAYGGYPATFDPWGPGTLVTVSS VL: DVVMTQTPASVSQPVGGTVTIKCQASEDIYNLLAWYQQKPGQPPKLLIYSASTLASGVPSRFKGSGSGTEYTLTISGLECADAATYYCQNNYLVTTYGVAFGGGTEVVVK | 0.182 nM |  | 
Ab3 (antibody, V domains shown) VH: EVQLVESGGGLVQPGGSLRLSCAVSGLDLSSYYMQWVRQAPGKGLEWVGVIGINDNTYYASWAKGRFTISRDNSKTTVYLQMNSLRAEDTAVYFCARGDIWGQGTLVTVSS VL: QVLTQSPSSLSASVGDRVTINCQASQSVYDNNYLAWYQQKPGKVPKQLIYSTSTLASGVPSRFSGSGSGTDFTLTISSLQPEDVATYYCLGSYDCSSGDCFVFGGGTKVEIKR |  | 0.127 nM | 
Ab4 (antibody, V domains shown) VH: QSLEESGGRLVTPGTPLTLTCSVSGIDLSGYYMNWVRQAPGKGLEWIGVIGINGATYYASWAKGRFTISKTSSTTVDLKMTSLTTEDTATYFCARGDIWGPGTLVTVSS VL: QVLTQTPSPVSAAVGSTVTINCQASQSVYHNTYLAWYQQKPGQPPKQLIYDASTLASGVPSRFSGSGSGTQFTLTISGVQCNDAAAYYCLGSYDCTNGDCFVFGGGTEVVVKR |  | 0.159 nM | 
Ab8 (antibody, V domains shown) VH: QVQLVESGGGVVQPGRSLRLSCAASGFTFSSYAMIWVRQAPGKGLEYIGYIDTDTSAYYASSVKGRFTISRDNSKNTLYLQMSSLRAEDTAVYYCARSYAAYGGYPATFDPWGQGTLVTVSS VL: DIQMTQSPSSLSASVGDRVTITCQASEDIYNLLAWYQQKPGKVPKLLIYSASTLASGVPSRFSGSGSGTDYTLTISSLQPEDVATYYCQNNYLVTTYGVAFGGGTKVEIK | 0.254 nM |  | 
